Experimental findings from US8987433B2, “Variant isoprenoid producing enzymes and uses thereof” (Sapphire Energy, Inc., priority 2009, dated 2015) are described below.

Data set [1] deals with E. coli XL1-blue cells. Nature of the data set: Minimum inhibitory concentration (MIC) of cefotaxime on plated bacterial cells. Format: cell-based. To be noted: for MIC: Escherichia coli, XL1BLUECELLS, 24 h, about 1,000 cells per plate, 24 hours at 37° C. How it is done: The minimum inhibitory concentration (MIC) of cefotaxime on bacterial cells lacking a plasmid is determined by plating 10 μl of a 10^−2 dilution of an overnight bacterial culture (about 1000 cfu) of E. coli XL1-blue cells (Stratagene, San Diego Calif.) on plates with varying levels of cefotaxime (Sigma, St. Louis Mo.), followed by incubation for 24 hours at 37° C.
Growth on cefotaxime is sensitive to the density of cells, and therefore similar numbers of cells needed to be plated on each plate (obtained by plating on plain LB plates). Platings of 1000 cells are consistently performed.
After digestion of the 900 bp product with the terminal restriction enzyme SfiI and agarose gel purification, the 900 bp product is ligated into the vector pUC182Sfi at the unique SfiI site with T4 DNA ligase (BRL, Gaithersburg Md.). The mixture is electroporated into E. coli XL1-blue cells and plated on LB plates with 0.32-0.64 μg/ml of cefotaxime (Sigma, St. Louis Mo.). The cells were grown for up to 24 hours at 37° C. and the resulting colonies are scraped off the plate as a pool and used as the PCR template for the next round of shuffling.
The transformants obtained after each of three rounds of shuffling are plated on increasing levels of cefotaxime. The colonies (>100, to maintain diversity) from the plate with the highest level of cefotaxime are pooled and used as the template for the PCR reaction for the next round.
Colonies obtained at 5-10 μg/ml are used for a third round similar to the first and second rounds except the cells are plated on LB plates having 80-160 μg/ml of cefotaxime. After the third round, colonies are obtained at 80-160 μg/ml, and after replating on increasing concentrations of cefotaxime, colonies could be obtained at up to 320 μg/ml after 24 hours at 37° C.
Growth on cefotaxime is dependent on the cell density, requiring that all the MICs be standardized (in our case to about 1,000 cells per plate). […] The 5 largest colonies grown at 1,280 μg/ml are plated for single colonies twice, and the SfiI inserts are analyzed by restriction mapping of the colony PCR products.

For data set [2], the system named is Gallus gallus FPP synthase (prenyl transferase activity). In words: Detection of prenyl transferase activity by luminescence measurement (PPi light assay). Type of data set: biochemical. The following applies: DMAPP and IPP substrates, two hours at room temperature, in vitro synthesized Strep-Tag protein, versus wild type control. The procedure:
After gene assembly was completed, the NEB PURExpress in vitro protein synthesis kit was used according to the manufacturer's instructions to produce the variant FPP synthase proteins. After protein synthesis, Strep-Tag magnetic beads (IBA GmbH) were used to isolate the synthesized proteins, after washing the beads with assay buffer (25 mm HEPES pH 7.4, 10 mM MgCl2).
After synthesis, the activity level of the synthesized protein was measured as described in Example 5 by luminescence. Because most mutations are anticipated to be detrimental, it is unlikely for any pool of mutants to have a higher activity than the wild-type protein; pools with higher activity than […] must be deconvoluted to identify individual beneficial mutants.
The residue numbers are reported using the wild-type sequence numbering (SEQ ID NO: 1). The winning pools of nine variants are again resynthesized as discrete mutants and activity measurements are repeated.
This example describes the detection of prenyl transferase activity by luminescence measurement. In this example, an avian FPP synthase (Genbank Accession No. P08836) (SEQ ID NO: 1) was used as the parent prenyl transferase. The parent prenyl transferase was codon-optimized (SEQ ID NO: 21) and inserted into a vector. The nucleic acid sequence of SEQ ID NO: 22 was cloned into the bacterial expression vector pET-21a(+) (FIG. 10) under the control of a T7 promoter. A reaction buffer was produced by mixing 4 μl of 10× reaction buffer (250 mM HEPES pH 7.4, 100 mM MgCl2), 0.2 μl of 1M dithiothreitol, 1 μl of 10 mM DMAPP, 2 μl of 10 mM IPP, and 31.8 μl of water. 1 ng of the Avian FPP synthase (SEQ ID NO: 22) was added to the 39 μl of reaction buffer in a white 96 well microplate. The reaction was sealed with an adhesive plastic cover and allowed to progress for two hours at room temperature.
The PPi light detection and conversion reagents were prepared as instructed by the manufacturer (Lonza Group Ltd., Basel, Switzerland). After the two hour incubation, 40 μl of the conversion reagent, and 40 μl of the detection reagent were added to the wells of the microplate, and the microplate was sealed with an aluminum foil cover. After sixty minutes, the aluminum cover was removed, and the luminescence emitted from each well was measured with a 96 well plate reader in glow luminescence mode. The total luminescence is reported as Relative Luminescence Units (RLU). […] For this study, each pool is a mixture of variants at a single amino acid position.

“Also recorded” adds a separate entry of the source. Like-named read-outs stand apart in the source and are kept apart here.

In the case of `CO/N=C(\C(=O)N[C@@H]1C(=O)N2C(C(=O)O)=C(COC(C)=O)CS[C@H]12)c1csc(N)n1` [cefotaxime], the MIC (as a rule, the lowest concentration that inhibits growth of the organism) in data set [1] (read-out: MIC of cefotaxime, cells carrying the starting (unshuffled) gene on pUC18 derivative) was around 0.02 µg/mL; in data set [1] (read-out: MIC of cefotaxime, mutant after the third round of shuffling and replating) it was 320 µg/mL. For the same molecule, the “cefotaxime level at which growth is obtained” value in data set [1] (at higher cell densities, after third round of shuffling) is “up to 1280 μg/ml”. In addition, in data set [1] (selected mutant versus starting gene), the “fold increased resistance to cefotaxime” value is recorded as 16,000 fold.

B1: Thr269Tyr: Gallus gallus FPP synthase (SEQ ID NO: 1) point mutation Thr269Tyr (protein, listed as Gallus gallus)
chain: MHKFTGVNAKFQQPALRNLSPVVVEREREEFVGFFPQIVRDLTEDGIGHPEVGDAVARLKEVLQYNAPGGKCNRGLTVVAAYRELSGPGQKDAESLRCALAVGWCIELFQAFFLVADDIMDQSLTRRGQLCWYKKEGVGLDAINDSFLLESSVYRVLKKYCRQRPYYVHLLELFLQTAYQTELGQMLDLITAPVSKVDLSHFSEERYKAIVKYKTAFYSFYLPVAAAMYMVGIDSKEEHENAKAILLEMGEYFQIQDDYLDCFGDPALYGKVGTDIQDNKCSWLVVQCLQRVTPEQRQLLEDNYGRKEPEKVAKVKELYEAVGMRAAFQQYEESSYRRLQELIEKHSNRLPKEIFLGLAQKIYKRQK
On to B1, for which the “prenyl transferase activity measured by luminescence, compared with wild type” value is “increased prenyl transferase activity as compared to the wild type protein; also recorded: activity greater than wild-type” in data set [2] and “more activity than the wild type protein sequence” in data set [2] (listed as Thr—269_Tyr).

B2: Thr269Gln: Gallus gallus FPP synthase (SEQ ID NO: 1) point mutation Thr269Gln (protein, listed as Gallus gallus)
chain: MHKFTGVNAKFQQPALRNLSPVVVEREREEFVGFFPQIVRDLTEDGIGHPEVGDAVARLKEVLQYNAPGGKCNRGLTVVAAYRELSGPGQKDAESLRCALAVGWCIELFQAFFLVADDIMDQSLTRRGQLCWYKKEGVGLDAINDSFLLESSVYRVLKKYCRQRPYYVHLLELFLQTAYQTELGQMLDLITAPVSKVDLSHFSEERYKAIVKYKTAFYSFYLPVAAAMYMVGIDSKEEHENAKAILLEMGEYFQIQDDYLDCFGDPALQGKVGTDIQDNKCSWLVVQCLQRVTPEQRQLLEDNYGRKEPEKVAKVKELYEAVGMRAAFQQYEESSYRRLQELIEKHSNRLPKEIFLGLAQKIYKRQK
For the molecule B2, the “prenyl transferase activity measured by luminescence, compared with wild type” value in data set [2] is “increased prenyl transferase activity as compared to the wild type protein; also recorded: activity greater than wild-type”; in data set [2] (listed as Thr—269_Gln) it was “more activity than the wild type protein sequence”.

B3: Thr269Asp: Gallus gallus FPP synthase (SEQ ID NO: 1) point mutation Thr269Asp (protein, listed as Gallus gallus)
chain: MHKFTGVNAKFQQPALRNLSPVVVEREREEFVGFFPQIVRDLTEDGIGHPEVGDAVARLKEVLQYNAPGGKCNRGLTVVAAYRELSGPGQKDAESLRCALAVGWCIELFQAFFLVADDIMDQSLTRRGQLCWYKKEGVGLDAINDSFLLESSVYRVLKKYCRQRPYYVHLLELFLQTAYQTELGQMLDLITAPVSKVDLSHFSEERYKAIVKYKTAFYSFYLPVAAAMYMVGIDSKEEHENAKAILLEMGEYFQIQDDYLDCFGDPALDGKVGTDIQDNKCSWLVVQCLQRVTPEQRQLLEDNYGRKEPEKVAKVKELYEAVGMRAAFQQYEESSYRRLQELIEKHSNRLPKEIFLGLAQKIYKRQK
As to B3, the “prenyl transferase activity measured by luminescence, compared with wild type” value is “increased prenyl transferase activity as compared to the wild type protein; also recorded: activity greater than wild-type” in data set [2] and “more activity than the wild type protein sequence” in data set [2] (listed as Thr—269_Asp).
